Test results from patent US20150018278.

How the values were obtained:
[1] = tested on: negative dominant form of chicken E2F4 (Thr261Ala/Thr263Ala)
[2] = tested on: constitutively active form of chicken E2F4 (Thr261Glu/Thr263Glu)
[3] = tested on: chicken transcription factor E2F4
Sequence of chicken transcription factor E2F4 (chain, as listed by the source): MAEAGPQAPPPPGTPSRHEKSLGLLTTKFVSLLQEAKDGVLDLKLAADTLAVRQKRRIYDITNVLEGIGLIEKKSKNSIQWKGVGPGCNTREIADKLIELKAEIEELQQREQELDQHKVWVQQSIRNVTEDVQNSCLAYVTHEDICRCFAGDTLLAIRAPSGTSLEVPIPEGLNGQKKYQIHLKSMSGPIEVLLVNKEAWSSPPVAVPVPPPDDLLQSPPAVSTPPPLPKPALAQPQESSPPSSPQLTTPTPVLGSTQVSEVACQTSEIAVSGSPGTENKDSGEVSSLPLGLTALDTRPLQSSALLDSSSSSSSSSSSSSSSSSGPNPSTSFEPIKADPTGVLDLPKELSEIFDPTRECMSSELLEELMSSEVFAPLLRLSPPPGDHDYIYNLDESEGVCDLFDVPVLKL

Sequence of negative dominant form of chicken E2F4 (Thr261Ala/Thr263Ala) (chain, as listed by the source T261A T263A): as the sequence (chain, as listed by the source) above, with T249A, T251A counted along it
Sequence of constitutively active form of chicken E2F4 (Thr261Glu/Thr263Glu) (chain, as listed by the source T261E T263E): as the sequence (chain, as listed by the source) above, with T249E, T251E counted along it

## p38^MAPK
[1]
  incorporation of BrdU: The expression of the negative dominant form of E2F4 (E2F4-ND) prevents the effect of 100 ng/ml NGF on the incorporation of BrdU in retinal neurogenic cultures.
[2]
  incorporation of BrdU: The incorporation of BrdU increases significantly in cells transfected with the constitutively active form of E2F4 (E2F4-CA), an effect that can be observed even in the presence of selective p38^MAPK inhibitor SB203580 (used at 5 µM)
[3]
  phosphorylation on threonine residues of E2F4 (Western blot with anti-phosphoThr antibodies in extracts immunoprecipitated with anti-E2F4 antibodies): The presence of NGF can be seen to involve an increase in phosphorylation on threonine residues, while the presence of p38^MAPK inhibitor inhibits such phosphorylation.
